Values of other authors in publication PMC8811192.
Like-named read-outs stand apart in the source and are kept apart here.

What was measured:
OrxA (Homo sapiens) [1] = biological target: OrxA (Homo sapiens) (UniProt O43612)
OrxA (Homo sapiens) [2] = biological target: OrxA (Homo sapiens) (UniProt O43612); remark: listed apart in the source
OrxB (Homo sapiens) = OrxB (Homo sapiens) (UniProt O43612)

| Substance | Kd (OrxA (Homo sapiens) [1]) [nM] | Kd (OrxA (Homo sapiens) [2]) [nM] | Kd (OrxB (Homo sapiens)) [nM] |
| --- | --- | --- | --- |
| OrxR1 (from UniProt O43613) | 25 |  |  |
| OrxR2 (from UniProt O43614) |  | 40 | 40 |
